Measurements: patent publication US20190144553A1 (published 2019)

Target: T1, WT hTNF (wild type human TNF-α, N-terminal 6×His tag) (human, UniProt P01375 77-233)
T1 construct: also called His-TNF
Experiment: BLI (Octet RED96), His-tagged hTNF on HIS1K biosensor, soluble receptor in solution, global 1:1 fit
Description: KD values were calculated using global fitting with a 1:1 model (R²≥0.95).

T1 sequence (P01375 other isoform, or with tags, fused parts or gaps limits assumed): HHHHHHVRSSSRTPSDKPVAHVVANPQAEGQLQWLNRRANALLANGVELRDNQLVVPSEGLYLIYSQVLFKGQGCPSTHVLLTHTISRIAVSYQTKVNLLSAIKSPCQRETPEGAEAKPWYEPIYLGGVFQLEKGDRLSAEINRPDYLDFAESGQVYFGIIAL

Kd: 10.2 nM
B1: soluble hTNF-R1 (Peprotech) (receptor, human, UniProt P19438 41-201, looked up)
chain: DSVCPQGKYIHPQNNSICCTKCHKGTYLYNDCPGPGQDTDCRECESGSFTASENHLRHCLSCSKCRKEMGQVEISSCTVDRDTVCGCRKNQYRHYWSENLFQCFNCSLCLNGTVHLSCQEKQNTVCTCHAGFFLRENECVSCSNCKKSLECTKLCLPQIEN
notes: Bought soluble receptor used as analyte in the Octet assay; also called p55
